We go through 8 molecules from US20240209106A1 (BEIGENE SWITZERLAND, published 2024).

Usually Kd stands for a measure of binding affinity in units of concentration.

Assay [1] concerns the target human CD137 ECD-mIgG2a (human). Description: SPR, multispecific antibody captured on anti-human IgG Fc chip, human CD137 ECD-mIgG2a flowed over. Background: Surface plasmon resonance follows binding to a sensor surface in real time, without labels.
Description: Briefly, anti-human IgG (Fc) antibody was immobilized on an activated CM5 biosensor chip (Cat.: BR100839, GE Life Sciences). Anti-huCD137 monoclonal antibodies or multispecific antibodies were flown through the chip surface and captured by anti-human IgG (Fc) antibody. […] The equilibrium dissociation constant (KD)) was calculated as the ratio koff/kₒₙ.
Assay [2] concerns the target full-length human CD137 (huCD137) (human, UniProt Q07011 24-255). Description: cell-based or functional assay.

human CD137 ECD-mIgG2a (human), sequence (chain, as listed by the source limits assumed): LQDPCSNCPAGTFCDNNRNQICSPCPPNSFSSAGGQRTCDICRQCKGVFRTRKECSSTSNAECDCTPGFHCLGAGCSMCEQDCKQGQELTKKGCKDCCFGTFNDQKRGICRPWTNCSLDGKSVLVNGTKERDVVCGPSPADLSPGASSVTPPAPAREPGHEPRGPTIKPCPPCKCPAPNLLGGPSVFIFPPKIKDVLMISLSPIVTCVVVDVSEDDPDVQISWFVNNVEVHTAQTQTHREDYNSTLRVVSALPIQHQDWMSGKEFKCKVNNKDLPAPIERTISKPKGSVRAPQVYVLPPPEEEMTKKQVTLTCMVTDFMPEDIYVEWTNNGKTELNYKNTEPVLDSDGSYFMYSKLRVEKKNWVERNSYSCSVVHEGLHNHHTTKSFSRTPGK
full-length human CD137 (huCD137), sequence (Q07011 24-255 limits assumed): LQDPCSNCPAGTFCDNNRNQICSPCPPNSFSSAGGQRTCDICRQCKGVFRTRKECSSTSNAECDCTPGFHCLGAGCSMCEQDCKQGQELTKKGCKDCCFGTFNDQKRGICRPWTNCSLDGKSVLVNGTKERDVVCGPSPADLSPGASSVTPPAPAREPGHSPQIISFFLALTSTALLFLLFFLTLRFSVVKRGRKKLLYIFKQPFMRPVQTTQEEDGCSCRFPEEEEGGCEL

B1: Format A - BGA-3285 (bispecific antibody, human IgG1, kappa)
heavy: QVQLVQSGAEVKKPGASVKVSCKASGYIFTSYYLHWVRQAPGQGLEWIGYINPQTGKTSYAQKFQGRVTMTRDTSTSTVYMELSSLRSEDTAVYYCAREYGNYNYPLDYWGQGTLVTVSSASTKGPSVFPLAPSSKSTSGGTAALGCLVKDYFPEPVTVSWNSGALTSGVHTFPAVLQSSGLYSLSSVVTVPSSSLGTQTYICNVNHKPSNTKVDKKVEPKSCDKTHTCPPCPAPPAAGPSVFLFPPKPKDTLMISRTPEVTCVVVDVSHEDPEVKFNWYVDGVEVHNAKTKPREEQYNSTYRVVSVLTVLHQDWLNGKEYKCKVSNKALAAPIEKTISKAKGQPREPQVYTLPPSREEMTKNQVSLTCLVKGFYPSDIAVEWESNGQPENNYKTTPPVLDSDGSFFLYSKLTVDKSRWQQGNVFSCSVMHEALHNHYTQKSLSLSPGKGGGGSEVQLLESGGGLVQPGGSLRLSCAASGFTISAEDVGWVRQAPGKGLEWVSAILDFGGSTYYAESVKGRFTISRDNAKNTLYLQMSSLRAEDTAVYYCARVVYHAGGGVTFDTRGQGTQVTVSS
light: DIQMTQSPSSLSASVGDRVTITCRASENQYGYLAWYQQKPGKVPKLLIYNYKNLVEGVPSRFSGSGSGTDFTLTISSLQPEDVATYYCQHHLGTPYTFGQGTKVEIKRTVAAPSVFIFPPSDEQLKSGTASVVCLLNNFYPREAKVQWKVDNALQSGNSQESVTEQDSKDSTYSLSSTLTLSKADYEKHKVYACEVTHQGLSSPVTKSFNRGEC
notes: Light chain by the description of Format A
In assay [1], B1 showed a Kd of 798 nM.

B2: BE-740 (A-IgG1-BGA-5623) (bispecific antibody)
heavy: not shown
light: DIQMTQSPSSLSASVGDRVTITCRASENQYGYLAWYQQKPGKVPKLLIYNYKNLVEGVPSRFSGSGSGTDFTLTISSLQPEDVATYYCQHHLGTPYTFGQGTKVEIKRTVAAPSVFIFPPSDEQLKSGTASVVCLLNNFYPREAKVQWKVDNALQSGNSQESVTEQDSKDSTYSLSSTLTLSKADYEKHKVYACEVTHQGLSSPVTKSFNRGEC
As to B2, the “Functional assay EC50 (ug/ml), in vitro CD137 activation (PBMC cytokine release)” value in assay [2] worked out at 0.17 µg/mL.

B3: BE-718 (A-BGA-5623-BGA-5623) (bispecific antibody, human IgG1, kappa)
heavy: QVQLVQSGAEVKKPGASVKVSCKASGYIFTSYYLHWVRQAPGQGLEWIGYINPQTGKTSYAQKFQGRVTMTRDTSTSTVYMELSSLRSEDTAVYYCAREYGNYNYPLDYWGQGTLVTVSSASTKGPSVFPLAPSSKSTSGGTAALGCLVKDYFPEPVTVSWNSGALTSGVHTFPAVLQSSGLYSLSSVVTVPSSSLGTQTYICNVNHKPSNTKVDKKVEPKSCDKTHTCPPCPAPPAAGPSVFLFPPKPKDTLMISRTPEVTCVVVDVSHEDPEVKFNWYVDGVEVHNAKTKPREEQYNSTYRVVSVLTVLHQDWLNGKEYKCKVSNKALAAPIEKTISKAKGQPREPQVYTLPPSREEMTKNQVSLTCLVKGFYPSDIAVEWESNGQPENNYKTTPPVLDSDGSFFLYSKLTVDKSRWQQGNVFSCSVMHEALHNHYTQKSLSLSPGKGGGGSEVQLLESGGGLVQPGGSLRLSCAASGFTVSAEDVGWVRQAPGKGLEWVSAILDKGGSTYYAESVKGRFTISRDNAKNTLYLQMSSLRAEDTAVYYCARIVYHAGGGVTFDTRGQGTQVTVSSGGGGSEVQLLESGGGLVQPGGSLRLSCAASGFTVSAEDVGWVRQAPGKGLEWVSAILDKGGSTYYAESVKGRFTISRDNAKNTLYLQMSSLRAEDTAVYYCARIVYHAGGGVTFDTRGQGTQVTVSS
light: DIQMTQSPSSLSASVGDRVTITCRASENQYGYLAWYQQKPGKVPKLLIYNYKNLVEGVPSRFSGSGSGTDFTLTISSLQPEDVATYYCQHHLGTPYTFGQGTKVEIKRTVAAPSVFIFPPSDEQLKSGTASVVCLLNNFYPREAKVQWKVDNALQSGNSQESVTEQDSKDSTYSLSSTLTLSKADYEKHKVYACEVTHQGLSSPVTKSFNRGEC
Regarding B3, the “Functional assay EC50 (ug/ml), in vitro CD137 activation (PBMC cytokine release)” value in assay [2] was determined as 0.01 µg/mL.

B4: Format A - BGA-9468 (bispecific antibody, human IgG1, kappa)
heavy: QVQLVQSGAEVKKPGASVKVSCKASGYIFTSYYLHWVRQAPGQGLEWIGYINPQTGKTSYAQKFQGRVTMTRDTSTSTVYMELSSLRSEDTAVYYCAREYGNYNYPLDYWGQGTLVTVSSASTKGPSVFPLAPSSKSTSGGTAALGCLVKDYFPEPVTVSWNSGALTSGVHTFPAVLQSSGLYSLSSVVTVPSSSLGTQTYICNVNHKPSNTKVDKKVEPKSCDKTHTCPPCPAPPAAGPSVFLFPPKPKDTLMISRTPEVTCVVVDVSHEDPEVKFNWYVDGVEVHNAKTKPREEQYNSTYRVVSVLTVLHQDWLNGKEYKCKVSNKALAAPIEKTISKAKGQPREPQVYTLPPSREEMTKNQVSLTCLVKGFYPSDIAVEWESNGQPENNYKTTPPVLDSDGSFFLYSKLTVDKSRWQQGNVFSCSVMHEALHNHYTQKSLSLSPGKGGGGSEVQLLESGGGLVQPGGSLRLSCAASGFTVSAEDVGWVRQAPGKGLEWVSAILDSGGSTYYAESVKGRFTISRDNAKNTLYLQMSSLRAEDTAVYYCARVVYHSGGGVTFDLRGQGTQVTVSS
light: DIQMTQSPSSLSASVGDRVTITCRASENQYGYLAWYQQKPGKVPKLLIYNYKNLVEGVPSRFSGSGSGTDFTLTISSLQPEDVATYYCQHHLGTPYTFGQGTKVEIKRTVAAPSVFIFPPSDEQLKSGTASVVCLLNNFYPREAKVQWKVDNALQSGNSQESVTEQDSKDSTYSLSSTLTLSKADYEKHKVYACEVTHQGLSSPVTKSFNRGEC
notes: as for B1
As to B4, the Kd in assay [1] came to 873 nM.

B5: Format A - BGA-3953 (bispecific antibody, human IgG1, kappa)
heavy: QVQLVQSGAEVKKPGASVKVSCKASGYIFTSYYLHWVRQAPGQGLEWIGYINPQTGKTSYAQKFQGRVTMTRDTSTSTVYMELSSLRSEDTAVYYCAREYGNYNYPLDYWGQGTLVTVSSASTKGPSVFPLAPSSKSTSGGTAALGCLVKDYFPEPVTVSWNSGALTSGVHTFPAVLQSSGLYSLSSVVTVPSSSLGTQTYICNVNHKPSNTKVDKKVEPKSCDKTHTCPPCPAPPAAGPSVFLFPPKPKDTLMISRTPEVTCVVVDVSHEDPEVKFNWYVDGVEVHNAKTKPREEQYNSTYRVVSVLTVLHQDWLNGKEYKCKVSNKALAAPIEKTISKAKGQPREPQVYTLPPSREEMTKNQVSLTCLVKGFYPSDIAVEWESNGQPENNYKTTPPVLDSDGSFFLYSKLTVDKSRWQQGNVFSCSVMHEALHNHYTQKSLSLSPGKGGGGSEVQLLESGGGLVQPGGSLRLSCAASGFTVSAEDVGWVRQAPGKGLEWVSAILDSGGSTYYAESVKGRFTISRDNAKNTLYLQMSSLRAEDTAVYYCARIVYHAGGGVTFDTRGQGTQVTVSS
light: DIQMTQSPSSLSASVGDRVTITCRASENQYGYLAWYQQKPGKVPKLLIYNYKNLVEGVPSRFSGSGSGTDFTLTISSLQPEDVATYYCQHHLGTPYTFGQGTKVEIKRTVAAPSVFIFPPSDEQLKSGTASVVCLLNNFYPREAKVQWKVDNALQSGNSQESVTEQDSKDSTYSLSSTLTLSKADYEKHKVYACEVTHQGLSSPVTKSFNRGEC
notes: as for B1
For the molecule B5, in assay [1], binding was put at a Kd of 115 nM.

B6: Format A - BGA-7746 (bispecific antibody, human IgG1, kappa)
heavy: QVQLVQSGAEVKKPGASVKVSCKASGYIFTSYYLHWVRQAPGQGLEWIGYINPQTGKTSYAQKFQGRVTMTRDTSTSTVYMELSSLRSEDTAVYYCAREYGNYNYPLDYWGQGTLVTVSSASTKGPSVFPLAPSSKSTSGGTAALGCLVKDYFPEPVTVSWNSGALTSGVHTFPAVLQSSGLYSLSSVVTVPSSSLGTQTYICNVNHKPSNTKVDKKVEPKSCDKTHTCPPCPAPPAAGPSVFLFPPKPKDTLMISRTPEVTCVVVDVSHEDPEVKFNWYVDGVEVHNAKTKPREEQYNSTYRVVSVLTVLHQDWLNGKEYKCKVSNKALAAPIEKTISKAKGQPREPQVYTLPPSREEMTKNQVSLTCLVKGFYPSDIAVEWESNGQPENNYKTTPPVLDSDGSFFLYSKLTVDKSRWQQGNVFSCSVMHEALHNHYTQKSLSLSPGKGGGGSEVQLLESGGGLVQPGGSLRLSCAASGFTVSAEDVGWVRQAPGKGLEWVSAILDFGGSTYYAESVKGRFTISRDNAKNTLYLQMSSLRAEDTAVYYCARVVYHAGGGVTFDTRGQGTQVTVSS
light: DIQMTQSPSSLSASVGDRVTITCRASENQYGYLAWYQQKPGKVPKLLIYNYKNLVEGVPSRFSGSGSGTDFTLTISSLQPEDVATYYCQHHLGTPYTFGQGTKVEIKRTVAAPSVFIFPPSDEQLKSGTASVVCLLNNFYPREAKVQWKVDNALQSGNSQESVTEQDSKDSTYSLSSTLTLSKADYEKHKVYACEVTHQGLSSPVTKSFNRGEC
notes: as for B1
In assay [1], B6 had a Kd of 245 nM.

B7: Format A - BGA-5385 (bispecific antibody, human IgG1, kappa)
heavy: QVQLVQSGAEVKKPGASVKVSCKASGYIFTSYYLHWVRQAPGQGLEWIGYINPQTGKTSYAQKFQGRVTMTRDTSTSTVYMELSSLRSEDTAVYYCAREYGNYNYPLDYWGQGTLVTVSSASTKGPSVFPLAPSSKSTSGGTAALGCLVKDYFPEPVTVSWNSGALTSGVHTFPAVLQSSGLYSLSSVVTVPSSSLGTQTYICNVNHKPSNTKVDKKVEPKSCDKTHTCPPCPAPPAAGPSVFLFPPKPKDTLMISRTPEVTCVVVDVSHEDPEVKFNWYVDGVEVHNAKTKPREEQYNSTYRVVSVLTVLHQDWLNGKEYKCKVSNKALAAPIEKTISKAKGQPREPQVYTLPPSREEMTKNQVSLTCLVKGFYPSDIAVEWESNGQPENNYKTTPPVLDSDGSFFLYSKLTVDKSRWQQGNVFSCSVMHEALHNHYTQKSLSLSPGKGGGGSEVQLLESGGGLVQPGGSLRLSCAASGFTLSAEDVGWVRQAPGKGLEWVSAILDHGGSTYYAESVKGRFTISRDNAKNTLYLQMSSLRAEDTAVYYCARVIYHAGGGVTFDTRGQGTQVTVSS
light: DIQMTQSPSSLSASVGDRVTITCRASENQYGYLAWYQQKPGKVPKLLIYNYKNLVEGVPSRFSGSGSGTDFTLTISSLQPEDVATYYCQHHLGTPYTFGQGTKVEIKRTVAAPSVFIFPPSDEQLKSGTASVVCLLNNFYPREAKVQWKVDNALQSGNSQESVTEQDSKDSTYSLSSTLTLSKADYEKHKVYACEVTHQGLSSPVTKSFNRGEC
notes: as for B1
In assay [1], B7 gave a Kd of 154 nM.

B8: Format A - BGA-8425 (bispecific antibody, human IgG1, kappa)
heavy: QVQLVQSGAEVKKPGASVKVSCKASGYIFTSYYLHWVRQAPGQGLEWIGYINPQTGKTSYAQKFQGRVTMTRDTSTSTVYMELSSLRSEDTAVYYCAREYGNYNYPLDYWGQGTLVTVSSASTKGPSVFPLAPSSKSTSGGTAALGCLVKDYFPEPVTVSWNSGALTSGVHTFPAVLQSSGLYSLSSVVTVPSSSLGTQTYICNVNHKPSNTKVDKKVEPKSCDKTHTCPPCPAPPAAGPSVFLFPPKPKDTLMISRTPEVTCVVVDVSHEDPEVKFNWYVDGVEVHNAKTKPREEQYNSTYRVVSVLTVLHQDWLNGKEYKCKVSNKALAAPIEKTISKAKGQPREPQVYTLPPSREEMTKNQVSLTCLVKGFYPSDIAVEWESNGQPENNYKTTPPVLDSDGSFFLYSKLTVDKSRWQQGNVFSCSVMHEALHNHYTQKSLSLSPGKGGGGSEVQLLESGGGLVQPGGSLRLSCAASGFTLSAEDVGWVRQAPGKGLEWVSAILDSGGSTYYAESVKGRFTISRDNAKNTLYLQMSSLRAEDTAVYYCARVVYHAGGGVTYDYRGQGTQVTVSS
light: DIQMTQSPSSLSASVGDRVTITCRASENQYGYLAWYQQKPGKVPKLLIYNYKNLVEGVPSRFSGSGSGTDFTLTISSLQPEDVATYYCQHHLGTPYTFGQGTKVEIKRTVAAPSVFIFPPSDEQLKSGTASVVCLLNNFYPREAKVQWKVDNALQSGNSQESVTEQDSKDSTYSLSSTLTLSKADYEKHKVYACEVTHQGLSSPVTKSFNRGEC
notes: as for B1
In turn, B8 displayed a Kd in assay [1] of 189 nM.
